Experimental data as given in the DeepSol protein solubility set.

assay: soluble on expression in E. coli; label from the status in PepcDB or PDB records

| Sequence | soluble on expression in E. coli |
| --- | --- |
| MSEFLPFSRPAMGVEELAAVKEVLESGWITTGPKNQALEQAFCQLTGNQHAIAVSSATAGMHITLMALKIGKGDEVITPSLTWVSTLNMISLLGATPVMVDVDRDTLMVTPEAIESAITPRTKAIIPVHYAGAPADIDAIRAIGERYGIAVIEDAAHAVGTYYKGRHIGAKGTAIFSFHAIKNITCAEGGLIVTDNENLARQLRMLKFHGLGVDAYDRQTWGRAPQAEVLTPGYKYNLTDINAAIALTQLVKLEHLNTRRREIAQQYQQALAALPFQPLSLPAWPHVHAWHLFIIRVDEQRCGISRDALMEALKERGIGTGLHFRAAHTQKYYRERFPTLSLPNTEWNSERICSLPLFPDMTTADADHVITALQQLAGQ | soluble |
| MGSDKIHHHHHHMIRIGIDVGGTNTDAVVMDGTQVVAGVKSATTADVMSGVVNALKDVLAASRMAASAVDVVMIGTTHFTNAVVQRRDLAPTAAVRLGLPATASLPPMVDWPEDLKTAIGNHAWLAHGGNEFDGRVISPLNEEELLGIAAEIKVRGINSIAITSVLSPVSNEFEKRAAEIFAKALPGAHITLSSDIGRIGLLERENAAIMNACLRDLSAHVIEAFRKAIAETGIRGRFFLTQNDGTLMDAAFAEKFPVLTFASGPTNSMRGAAFLSGVDDAIVVDIGGTTSDVGSLQNGFPRQATVAVEVGGVRTNFRMPDVFSIGLGGGSLVVDGEHGVKVGPTSVGYRINTEALIFGGETLTTTDITVAAGNAELGDKARVAQLPKDLLDRTQAKILSMLEDCVERSRLSPDPLPVIVVGGGSILVNGPIGGLEVIKPNYFGVANAVGAAIAQVSGEIDRVYALAEIGRDQALDDAKARAIDAAVAAGASRDSVEIVDVEDVPLAYLPGNATRVRVKAVGELHVA | not soluble |
| MAVTQTRDAVIIGGGHNGLVCAFYLAKAGLKVTVCEARGVVGGAAVTEEFHPGFRNSVASYTVSLLNPRVIADMGLRELGLTFLERPISNFLPISDDKYIKLGGGLERTQEEFRKYSRRDAEVLPAYYAMLDEIGDILRDLAQETPPNLGDGLPGLLRALRQGGRLAFLSRQRKRDLLDLFTKSARDVLDGWFESEPVKAAFGFDAVVGNFASPDTPGSAYVLLHHTFGEVNGKKGAWGHAVGGMGAITQAMAKACEAAGVEILLDAPVEAVHIDGGKAAGVQLVDGRQIMAPIVSANVNPALLYKKLVPPSALTPDFRKAVDGYKNGSGTFRMNVALSELPSFTCLPGKETAEHHQSGIVIAPSLDYMDAAYRDAKGQGISKAPIVEMLIPSSLDTSLAPPGQHVASLFCQQFAPELPDGRSWDDAREAAADLIIDTVDQWAPGFKASVLGRMILSPLDLERKFGLIGGDIMHGHMSLDQLWATRPLLGHASHRAPIAGLYMCGAGTHPGGGVSGNPGRNAAREILRDKDFATAVKLSVVGRLEHHHHHH | not soluble |
| MSLDFATEYVYPAFSELTGTDKIVAFGDHSHKCPIYVPQTPPCTAECPAGEDIRAINRFLNGTDPSDDPLKSAWETATDTNPFPAVMGRICPHPCQSKCNRGVHDESVAINAVEQVLGNYGIEHNLKLKGPGADTGKRVAIIGGGPAGLSAAYQLRRKGHAVTIYDANEKLGGMVLYGIMGYRVDRKVLEAEIGRIIELGVETKMGVTIGKDITLEQLEAEYDAVFIAVGAQKGRALPVPGFEGTPGATNAIDFLKSYEVLGDDIPVGKHVVVIGDGNVSMDVARLALRLGSQATIISGVPREEMACFENEFDDAKNEGTTMHFLTGTVEVLGGASGVTGLRCTKMVKKEKGEEGWNSPIPFLRYKSNGESFEIEADMVVAAIGQATDLSGLGSAASGPWLKVDRNFRIPGREKLFGGGDALKVDLITTAVGHGRKAAYAIDAFLKGEPMPEEGHHHHHH | soluble |
| MIVDLPDTTTTAVNKKLDELREKIGAVAMGRVLTLIIAPDSEAMLEESIEAANDASHEHPSRIIVTMRGDPYADRPRLDAQLRVGADAGAGEFVVLRLSGPLAGHADSVVIPFLLPDIPVVAWWPDIAPAVPAQDALGKLAIRRITDATNAIDPLSAIKSRLAGYGAGDTDLAWSRITYWRALLTSAVDQPRHEPIESALVSGLKTEPALDVLAGWLASRIEGPVRRAVGELKVELVRNSETIVLSRPQEGITATLTRTGKPDALVPLARRVTGECLAEDLRRLDPDEIYCAALEGIKKVQYR | not soluble |
| MSLSKREEWAQGFILNLQSGYTQGTVGFGLDAMGMLGVKLDSGRGRSGTGLLPKDSDGRAPDTYSKLGLTAKVKVSQSELKVGTLIPKLPSVQPNNGRIFPQIFEGALLTSKEIKDLGFTAGRLEKTKIRDSSDSEDLALNDKNGRFAGVSADHFDLGGLDYKLTDQLTASYHYSNLQDVYRQHFVGLLHSWPIGPGELTSDLRFARSTDSGSAKAGGIDNKSLNGMFTYSLGNHAFGAAWQRMNGDDAFPYLEGSNPYLVNFVQVNDFAGPKERSWQLRYDYDFVGLGIPGLTFMTRYVKGDNVELAGQSGEGREWERNTELQYVFQSGALKNLGIRWRNATFRSNFTRDIDENRLIVSYTLPIWEGHHHHHH | not soluble |
| MGSDKIHHHHHHMVMLKMKKTIAYYRSSTDLQENSIEMQQIKAFEYSMKKRITIDEEYVDKDVSARKKTLMQRPGMNKLMKEIEAGVVGSIIVYKRDRFARKLQEHMQLYRLFQEYDIDVYFSSDSEVQMNYSPIGEYIEAILGSICENEGSLIAQRIQETKIAKFLSGKYAGNLPYGYEKGEPNADGQVNILQVSHEIEVVKEIYNALLNKECKSIQELCNDLNEKYKTEETKDWDQSKVVNIVKNPIYHGLRVMNFGSKEYKKAYKNIKVVEKTDWDIANEQLDKMIVKRETGKETIQFLLENILYCHECQKPLIAKKRMRSYQDYYIYECKEHDVCVEAGYIEVEILKHAKTFFHRLLDENFNELYERSTYQNVRKIKKLIGSQEMIIKGVTKKVGKLIDQWLNCQKMQREHEGNDCAKCQSNQHIGEIKEANEILKSEKRKLQHLDMRLYEIKNFKEKAKEWITHLECPKDILLLEKEERKRFYRDMIHCIQVDSWEYHIVFKHPFMLIQEVHQNSETV | not soluble |
| MAASITAITVENLEYPAVVTSPVTGKSYFLGGAGERGLTIEGNFIKFTAIGVYLEDIAVASLAAKWKGKSSEELLETLDFYRDIISGPFEKLIRGSKIRELSGPEYSRKVMENCVAHLKSVGTYGDAEAEAMQKFAEAFKPVNFPPGASVFYRQSPDGILGLSFSPDTSIPEKEAALIENKAVSSAVLETMIGEHAVSPDLKRCLAARLPALLNEGAFKIGN | soluble |
| VDLGSKSSNSTCRLNVTELASIHPGETWTLHGMCISICYYENVTEDEIIGVAFTWQHNESVVDLWLYQNDTVIRNFSDITTNILQDGLKMRTVPVTKLYTSRMVTNLTVGRYDCLRCENGTTKIIERLYVRLGSLYPRPPGSGLAKHPSVSADEELSA | soluble |
| MGHHHHHHSHMNPLKNIKCTKCPEVFQGVEKLVFHMRAQHFIFMCPRCGKQFNHSSNLNRHMNVHRGVKSHSCGICGKCFTQKSTLHDHLNLHSGARPYRCSYCDVRFAHKPAIRRHLKEQHGKTTAENVL | soluble |
| MSDTPQAILLMGPTASGKTGLALELARRFPVEIVSVDSALVYRDMDIGTAKPTAEEMAACPHHLIDVISPLQSYSAAQFHADANRLIADIQARGKLPLLVGGTMLYYKALLEGLSDLPQADAALRAELDADAALLGWPAMHARLAELDPATASRLNPNDSQRIHRALEVCLLSGKPMSELIAQGKEAAAGFRFLPLALVPRERGWLHARIAERFRIMLEQGFLDEVSRLRAKYPELTLNLPSMRCVGYRQAWEHQDGLYGHDEFVERGVAATRQLAKRQLTWTRSLDAIPVDAQRDGLAGLLGDAVDDFLAGRPPAESLRYAGDF | soluble |
| MAHHHHHHMGTLEAQTQGPGSMAKTMKAAVVRAFGKPLTIDEVPIPQPGPGQIQVAIQASGVCHTDLHAAEGDWPVKPNPPFIPGHEGVGFVSAVGSGVKHVKEGDRVGIPWLYTACGHCRHCLGGWETLCEEQLNTGYSVNGGFAEYVVADPNFVGHLPKNIDFNEIAPVLCAGVTVYKGLKVTDTKPGDWVVISGIGGLGHMAVQYARAMGLNVAAVDIDDRKLDLARRLGATVTVNAKTVADPAAYIRKETDGGAQGVLVTAVSPKAFEQALGMVARGGTVSLNGLPPGDFPLSIFNMVLNGVTVRGSIVGTRLDLQESLDFAADGKVKATIQTGKLEDINAIFDDMRQGNIEGRIVMDLTQ | soluble |
| SLNAEEKKGLQRAIEEITEIAKGFGLDFYPMRYEICPAEIIYTFGAYGMPTRFSHWSFGKQFHKMKLHYDLGLSKIYELVINSDPCYAFLLDSNSLIQNKLIVAHVLAHCDFFKNNCRFQNTKRDMVESMAATAERIKHYEQVHGIKEVESFLDAILSIQEHIDPSLVRPKLQWSVDDEEEEIEEAATPYDDLWSLDEKKPKKQVKKSKKPFPPRPEKDILLFIEEHSRELEPWQRDILTMMREEMLYFWPQLETKIMNEGWASYWHQRIIRELDLTSDEAIEFAKLNAGVVQPSKTGINPYYLGLKIFEDIEKRYNNPTEEMKKMGVQPDSGREKMFEVREIESDISFIRNYLTKELVMREDLYLFAAAGRDYKIIDKQWKSVRDQLVSMRVNGGFPYLTVNDGDYMKNNELYIKHWYEGIELDLKYLEKVLPYLFQLWGRSVHIESVLEDKEVMFSYDGKGVHRRYL | soluble |
| MYSRADRLLRQFSLKLNTDSIVFDENRLCSFIIDNRYRILLTSTNSEYIMIYGFCGKPPDNNNLAFEFLNANLWFAENNGPHLCYDNNSQSLLLALNFSLNESSVEKLECEIEVVIRSMENLYHILQDKGITLDTDYTHHHHHH | soluble |
| MGSDKIHHHHHHMVVTEYELKPQNFPRFPLDWSEIFGRKAKIVVEIGFGNGEFLAELARRHPEKDFVGFEVSITSFVKAQKKFKRYNLKNVRLVKVDARFGLRELFPDNSVEKVYINFPCPWPKKRHESRRITSYDFLQTLSAVLEMDGTVEFATDEEWYAREVLDTFESSEYFVVDVFEENFKRDVETRYERKWKSQGKKTFLIVARKVKNGTVKRLMEGENTMAHSVFEGNVTWEKLKELEGKVFKDKNKIFVVKKVYRDGDYLLKVISTDEGGFQQVYYLNLSGRDGKWVLKLDEGSDPYRTPALKWSLRRIPEELTAQGSP | not soluble |
| MGPQSDSRTLISTYSQQSFQQFSFEYCYHSNTPSLPFSAIFSLYWLLHPFSASTGFSKGPQSDYRTLISTYYQQSFQQFSFEYCYHSNTPSLVSLFFSHLQPFLAIFSHFQPFSASAGFSKGPQSDSRTLISTYSQQSFQQFSFEYCCLSNTRSLVSLF | not soluble |
| MAHHHHHHMSALAKKMMEKYGWKEGEGLGKERSGIKSYVKVTRRDPHTATGLGHAADPAQGGSLASTHAVELDAIYGQLHKETRKRQRQSSKARVDQGDTSEDEVDNGGELSDVSSTNSGASSSSSADSKSEGKAAVAARAAVKRQRRAPSSSPSNSGNDGDDRTDSKRSKGEHIGDVTRMSDKELFQRCGGVRLGRAGRHRLFDGKLKRIQDSS | soluble |
| GLDTGALDQQQNNNGRESIRTVNVSVNNAVTKIVSNMSPAVVGVVNIQKSDIWGESGEAGSGSGVIYKKNDHSAYVVTNHHVIEGASQIEISLKDGSRVSADLVGSDQLMDLAVLRVKSDKIKAVADFGNSDKVKSGEPVIAIGNPLGLEFAGSVTQGVISGTERAIPVDSNGDGQPDWNAEVLQTDAAINPGNSGGALLNMDGKVIGINSMKIAESAVEGIGLSIPSKLVIPVIEDLERYGKVKRPFLGIEMKSLSDIASYHWDETLKLPKNVTNGAVVMGVDAFSPAGKAGLKELDVITEFDGYKVNDIVDLRKRLYQKKVGDRVKVKFYRGGKEKSVDIKLSSA | not soluble |
| GNGRFLTLKPLPDSIIQESLEIQQGVNPFFIGRSEDCNCKIEDNRLSRVHCFIFKKRHAVGKSMYESPAQGLDDIWYCHTGTNVSYLNNNRMIQGTKFLLQDGDEIKIIWDKNNKFVIGFKVEINDTTGLFNEGLGMLQEQRVVLKQTAEEKDLVKKL | soluble |
